# pKd: −log10 of the molar value.
# Columns and labels:
# Test in all cases: SPR, ligand directly immobilised, soluble Fcγ receptor as analyte, pH 7.3
# [1] = target: human FcγRI (CD64) (human) (UniProt P12314)
# [2] = target: human FcγRIIB (CD32B) (human) (UniProt P31994)
# [3] = target: human FcγRIIIA (CD16a) (human) (UniProt P08637)
# human FcγRIIIA (CD16a) (human), sequence (P08637 17-208): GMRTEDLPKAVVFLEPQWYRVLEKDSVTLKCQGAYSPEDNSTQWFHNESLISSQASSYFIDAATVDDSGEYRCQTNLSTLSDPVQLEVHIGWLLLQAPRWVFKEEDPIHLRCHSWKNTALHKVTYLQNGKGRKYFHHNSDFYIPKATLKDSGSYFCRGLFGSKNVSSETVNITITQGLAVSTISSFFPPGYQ
# human FcγRIIB (CD32B) (human), sequence (P31994 43-217): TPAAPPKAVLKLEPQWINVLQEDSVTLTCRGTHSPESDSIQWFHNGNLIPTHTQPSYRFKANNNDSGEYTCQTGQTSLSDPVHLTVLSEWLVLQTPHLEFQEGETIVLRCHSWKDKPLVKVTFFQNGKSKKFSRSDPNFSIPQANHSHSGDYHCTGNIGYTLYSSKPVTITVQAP
# human FcγRI (CD64) (human), sequence (P12314 16-292): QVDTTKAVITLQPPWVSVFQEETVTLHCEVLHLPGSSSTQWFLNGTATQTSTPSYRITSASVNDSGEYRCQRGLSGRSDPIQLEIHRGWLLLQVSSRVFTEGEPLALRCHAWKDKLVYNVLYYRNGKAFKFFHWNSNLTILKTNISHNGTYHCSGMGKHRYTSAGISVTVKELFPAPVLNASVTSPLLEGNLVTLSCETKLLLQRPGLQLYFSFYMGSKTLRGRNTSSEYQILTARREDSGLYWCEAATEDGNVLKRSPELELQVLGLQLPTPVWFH
substance,measurement,setting,value
huIgG1 (antibody),pKd,[1],9.46
same,pKd,[2],5.24
same,pKd,[3],5.35
